Residue numbers refer to the chain shown, from its start. Names may count otherwise.

Kd, koff and kon data for 7 molecules are collected here from publication PMC3276087 (Journal of Experimental Botany, 2011).

B1: His-tagged ACA8 N-terminus, wild type (6His-1M-I116) (domain or fragment)
chain: MTSLLKSSPGRRRGGDVESGKSEHADSDSDTFYIPSKNASIERLQQWRKAALVLNASRRFRYTLDLKKEQETREMRQKIRSHAHALLAANRFMDMGRESGVEKTTGPATPAGDFGI
B2: His-tagged ACA8 N-terminus S29D (6His-1M-I116) (domain or fragment)
chain: B1 chain with S29D
B3: His-tagged ACA8 N-terminus S27D (6His-1M-I116) (domain or fragment)
chain: B1 chain with S27D
B4: His-tagged ACA8 N-terminus S19D (6His-1M-I116) (domain or fragment)
chain: B1 chain with S19D
B5: His-tagged ACA8 N-terminus S22D (6His-1M-I116) (domain or fragment)
chain: B1 chain with S22D
B6: His-tagged ACA8 N-terminus S57D (6His-1M-I116) (domain or fragment)
chain: B1 chain with S57D
B7: His-tagged ACA8 N-terminus S99D (6His-1M-I116) (domain or fragment)
chain: B1 chain with S99D

This experiment deals with bovine testes calmodulin (bovine, UniProt P62157 1-149). The experiment is described as follows: SPR. (SPR reads the build-up and loss of mass on a sensor chip optically.)
As a reminder, the Kd is the concentration at which binding is half-saturated. As a reminder, the koff is a measure of how fast the partners let go of each other. High values mean a short-lived complex, low ones a long-lived complex. As usually defined, the kon is the second-order rate constant of association. Low values mean slower complex formation, high ones faster complex formation. Take B1: the Kd was 19.3 nM, the koff worked out at 0.00244 s⁻¹ and the kon was found to be 127000 M⁻¹ s⁻¹.
Turning to B2, the affinity, expressed as Kd, was 22.3 nM; the koff came to 0.00382 s⁻¹; the kon turned out to be 171000 M⁻¹ s⁻¹.
For the molecule B3, binding was put at a Kd of 26.5 nM, the off-rate (koff) was determined as 0.0052 s⁻¹ and the kon worked out at 196000 M⁻¹ s⁻¹.
The matching figures for B4: 14.5 nM, 0.00325 s⁻¹ and 224000 M⁻¹ s⁻¹.
As for B5, the equilibrium dissociation constant (Kd) is 23.9 nM, the koff came to 0.00139 s⁻¹ and the kon turned out to be 58000 M⁻¹ s⁻¹.
In turn, B6 returned a Kd of 165 nM, a koff of 0.0255 s⁻¹ and a kon of 154000 M⁻¹ s⁻¹.
B7 came in with a Kd of 11.3 nM, a koff of 0.00137 s⁻¹ and a kon of 121000 M⁻¹ s⁻¹.
